Results published in US20230395193A1 (priority 2020, published 2023).

B1: M-Q5JRX3 (protein, UniProt Q5JRX3 29-1037, looked up)
Presequence protease, …: NSNRACERALQYKLGDKIHGFTVNQVTSVPELFLTAVKLTHDDTGARYLHLAREDTNNLFSVQFRTTPMDSTGVPHILEHTVLCGSQKYPCRDPFFKMLNRSLSTFMNAFTASDYTLYPFSTQNPKDFQNLLSVYLDATFFPCLRELDFWQEGWRLEHENPSDPQTPLVFKGVVFNEMKGAFTDNERIFSQHLQNRLLPDHTYSVVSGGDPLCIPELTWEQLKQFHATHYHPSNARFFTYGNFPLEQHLKQIHEEALSKFQKIEPSTVVPAQTPWDKPREFQITCGPDSFATDPSKQTTISVSFLLPDITDTFEAFTLSLLSSLLTSGPNSPFYKALIESGLGTDFSPDVGYNGYTREAYFSVGLQGIAEKDIETVRSLIDRTIDEVVEKGFEDDRIEALLHKIEIQMKHQSTSFGLMLTSYIASCWNHDGDPVELLKLGNQLAKFRQCLQENPKFLQEKVKQYFKNNQHKLTLSMRPDDKYHEKQAQVEATKLKQKVEALSPGDRQQIYEKGLELRSQQSKPQDASCLPALKVSDIEPTIPVTELDVVLTAGDIPVQYCAQPTNGMVYFRAFSSLNTLPEELRPYVPLFCSVLTKLGCGLLDYREQAQQIELKTGGMSASPHVLPDDSHMDTYEQGVLFSSLCLDRNLPDMMQLWSEIFNNPCFEEEEHFKVLVKMTAQELANGIPDSGHLYASIRAGRTLTPAGDLQETFSGMDQVRLMKRIAEMTDIKPILRKLPRIKKHLLNGDNMRCSVNATPQQMPQTEKAVEDFLRSIGRSKKERRPVRPHTVEKPVPSSSGGDAHVPHGSQVIRKLVMEPTFKPWQMKTHFLMPFPVNYVGECIRTVPYTDPDHASLKILARLMTAKFLHTEIREKGGAYGGGAKLSHNGIFTLYSYRDPNTIETLQSFGKAVDWAKSGKFTQQDIDEAKLSVFSTVDAPVAPSDKGMDHFLYGLSDEMKQAHREQLFAVSHDKLLAVSDRYLGTGKSTHGLAILGPENPKIAKDPSWIIQ
modifications: interactor of viral M protein
B2: E-Q9NPI6 (protein, UniProt Q9NPI6 1-582, looked up)
mRNA-decapping enzyme 1A: MEALSRAGQEMSLAALKQHDPYITSIADLTGQVALYTFCPKANQWEKTDIEGTLFVYRRSASPYHGFTIVNRLNMHNLVEPVNKDLEFQLHEPFLLYRNASLSIYSIWFYDKNDCHRIAKLMADVVEEETRRSQQAARDKQSPSQANGCSDHRPIDILEMLSRAKDEYERNQMGDSNISSPGLQPSTQLSNLGSTETLEEMPSGSQDKSAPSGHKHLTVEELFGTSLPKEQPAVVGLDSEEMERLPGDASQKEPNSFLPFPFEQLGGAPQSETLGVPSAAHHSVQPEITTPVLITPASITQSNEKHAPTYTIPLSPVLSPTLPAEAPTAQVPPSLPRNSTMMQAVKTTPRQRSPLLNQPVPELSHASLIANQSPFRAPLNVTNTAGTSLPSVDLLQKLRLTPQHDQIQTQPLGKGAMVASFSPAAGQLATPESFIEPPSKTAAARVAASASLSNMVLAPLQSMQQNQDPEVFVQPKVLSSAIPVAGAPLVTATTTAVSSVLLAPSVFQQTVTRSSDLERKASSPSPLTIGTPESQRKPSIILSKSQLQDTLIHLIKNDSSFLSTLHEVYLQVLTKNKDNHNL
modifications: interactor of SARS-CoV-2 E
B3: M-Q5BJH7 (protein, UniProt Q5BJH7 1-314, looked up)
Protein YIF1B: MHPAGLAAAAAGTPRLRKWPSKRRIPVSQPGMADPHQLFDDTSSAQSRGYGAQRAPGGLSYPAASPTPHAAFLADPVSNMAMAYGSSLAAQGKELVDKNIDRFIPITKLKYYFAVDTMYVGRKLGLLFFPYLHQDWEVQYQQDTPVAPRFDVNAPDLYIPAMAFITYVLVAGLALGTQDRFSPDLLGLQASSALAWLTLEVLAILLSLYLVTVNTDLTTIDLVAFLGYKYVGMIGGVLMGLLFGKIGYYLVLGWCCVAIFVFMIRTLRLKILADAAAEGVPVRGARNQLRMYLTMAVAAAQPMLMYWLTFHLVR
B4: M-Q6AI08 (protein, UniProt Q6AI08 1-1181, looked up)
HEAT repeat-containing …: MAAVQVVGSWPSVQPREAPREAIPERGNGFRLLSARLCALRPDDSSSARTEIHLLFDQLISENYSEGSGVAPEDVSALLVQACRLVPLNQNHLVSKVSQLIHHLLNRLQVIVDEQHLDFLLAYTISAIHQCSSWTHREILQALAALVYCNGSKCQKYLPELLGNTGLLMKLSDLAQSDPEVRRAAVHCMANLCLSVPGQPYLEEPYQNVCFQAFLTILQSPKSSDMDDITFCMLLQNALKGIQSLLNGGRMKLTQTDELGALLAVLKKFMFHGLPGLNIEMPTVLYPTPLPQYDGRTPIKPQQSESSASRPTLNKKKKSKVKPKKIQQGEEEEKESSGEIEAAPVTGTGRVNLHEGNTWCPSSLGVQSLPLDGSGAAEKDGVSSSFSSSSWKRVSSSESDFSDAEGGMQSKMRSYQAKVRQGALVCFLSTIKSIEKKVLYGYWSAFIPDTPELGSPQSVSLMTLTLKDPSPKTRACALQVLSAILEGSKQFLSVAEDTSDHRRAFTPFSVMIACSIRELHRCLLLALVAESSSQTVTQIIKCLANLVSNAPYDRLKLSLLTKVWNQIKPYIRHKDVNVRVSSLTLLGAIVSTHAPLPEVQLLLQQPCSSGLGNSNSATPHLSPPDWWKKAPAGPSLEETSVSSPKGSSEPCWLIRLCISIVVLPKEDSCSGSDAGSAAGSTYEPSPMRLEALQVLTLLARGYFSMTQAYLMELGEVICKCMGEADPSIQLHGAKLLEELGTGLIQQYKPDSTAAPDQRAPVFLVVMFWTMMLNGPLPRALQNSEHPTLQASACDALSSILPEAFSNLPNDRQMLCITVLLGLNDSKNRLVKAATSRALGVYVLFPCLRQDVIFVADAANAILMSLEDKSLNVRAKAAWSLGNLTDTLIVNMETPDPSFQEEFSGLLLLKMLRSAIEASKDKDKVKSNAVRALGNLLHFLQPSHIEKPTFAEIIEESIQALISTVLTEAAMKVRWNACYAMGNVFKNPALPLGTAPWTSQAYNALTSVVTSCKNFKVRIRSAAALSVPGKREQYGSVDQYARIWNALVTALQKSEDTIDFLEFKYCVSLRTQICQALIHLLSLASASDLPCMKETLELSGNMVQSYILQFLKSGAEGDDTGAPHSPQERDQMVRMALKHMGSIQAPTGDTARRAIMGFLEEILAVCFDSSGSQGALPGLTNQ
modifications: interaction partner of SARS-CoV-2 M
B5: M-Q68DH5 (protein, UniProt Q68DH5 1-695, looked up)
G-protein coupled …: MSGAALGLEIVFVFFLALFLLHRYGDFKKQHRLVIIGTLLAWYLCFLIVFILPLDVSTTIYNRCKHAAANSSPPENSNITGLYATANPVPSQHPCFKPWSYIPDGIMPIFWRVVYWTSQFLTWILLPFMQSYARSGGFSITGKIKTALIENAIYYGTYLLIFGAFLIYVAVNPHLHLEWNQLQTIGIAAANTWGLFLLVLLLGYGLVEIPRSYWNGAKRGYLLMKTYFKAAKLMTEKADAEENLEDAMEEVRKVNESIKYNHPLRKCVDTILKKCPTEYQEKMGRNMDDYEDFDEKHSIYPSEKSLVKLHKQVIYSVQRHRRTQVQWQILLEQAFYLEDVAKNETSATHQFVHTFQSPEPENRFIQYFYNPTFEWYWECLLRPWFYKILAVVLSIFSVIVVWSECTFFSTTPVLSLFAVFIQLAEKTYNYIYIEIACFLSIFFLSICVYSTVFRIRVFNYYYLASHHQTDAYSLLFSGMLFCRLTPPLCLNFLGLTHMDSSISHKNTQPTAYTSIMGSMKVLSFIADGFYIYYPMLVVILCIATYFSLGTRCLNLLGFQQFMGDDDMTSDLVNEGKELIRKEKRKRQRQEEGENRRREWKERYGHNREDSTRNRNIHTDPKESNFSDVNTNRSAFKYTRANNRTERDRIELLQDAEPLDFNAETFTDDPLESESGRYQPGGRYLSMSRSDIFNDV
modifications: interaction partner of SARS-CoV-2 M
B6: M-Q4KMQ2 (protein, UniProt Q4KMQ2 1-910, looked up)
Anoctamin-6: MKKMSRNVLLQMEEEEDDDDGDIVLENLGQTIVPDLGSLESQHDFRTPEFEEFNGKPDSLFFNDGQRRIDFVLVYEDESRKETNKKGTNEKQRRKRQAYESNLICHGLQLEATRSVLDDKLVFVKVHAPWEVLCTYAEIMHIKLPLKPNDLKNRSSAFGTLNWFTKVLSVDESIIKPEQEFFTAPFEKNRMNDFYIVDRDAFFNPATRSRIVYFILSRVKYQVINNVSKFGINRLVNSGIYKAAFPLHDCKFRRQSEDPSCPNERYLLYREWAHPRSIYKKQPLDLIRKYYGEKIGIYFAWLGYYTQMLLLAAVVGVACFLYGYLNQDNCTWSKEVCHPDIGGKIIMCPQCDRLCPFWKLNITCESSKKLCIFDSFGTLVFAVFMGVWVTLFLEFWKRRQAELEYEWDTVELQQEEQARPEYEARCTHVVINEITQEEERIPFTAWGKCIRITLCASAVFFWILLIIASVIGIIVYRLSVFIVFSAKLPKNINGTDPIQKYLTPQTATSITASIISFIIIMILNTIYEKVAIMITNFELPRTQTDYENSLTMKMFLFQFVNYYSSCFYIAFFKGKFVGYPGDPVYWLGKYRNEECDPGGCLLELTTQLTIIMGGKAIWNNIQEVLLPWIMNLIGRFHRVSGSEKITPRWEQDYHLQPMGKLGLFYEYLEMIIQFGFVTLFVASFPLAPLLALVNNILEIRVDAWKLTTQFRRLVPEKAQDIGAWQPIMQGIAILAVVTNAMIIAFTSDMIPRLVYYWSFSVPPYGDHTSYTMEGYINNTLSIFKVADFKNKSKGNPYSDLGNHTTCRYRDFRYPPGHPQEYKHNIYYWHVIAAKLAFIIVMEHVIYSVKFFISYAIPDVSKRTKSKIQREKYLTQKLLHENHLKDMTKNMGVIAERMIEAVDNNLRPKSE

System: SARS-CoV-1, MERS-CoV and SARS-CoV-2 proteins in HEK293T cells
Design: species or system human

| Molecule | MIST_MERS | MIST_SARS1 | MIST_SARS2 | Saint_MERS | Saint_SARS1 | Saint_SARS2 |
| --- | --- | --- | --- | --- | --- | --- |
| B1 | 0 | 0.001111 | 0.9523 | 0 | 0 | 1 |
| B2 | 0.9797 | 0 | 0 | 1 | 0 | 0 |
| B3 | 0.3712 | 0.9893 | 0.5979 | 0 | 0.97 | 1 |
| B4 | 0 | 0.8284 | 0 | 0 | 0.97 | 0 |
| B5 | 0.9869 | 0.6855 | 0.2449 | 0.95 | 0 | 0 |
| B6 | 0 | 0.864 | 0.9939 | 0 | 0.32 | 1 |
